# Reference: the RNAGym collection of RNA variant scans (doi:10.1073/pnas.2313332121)
# B1: TPR t1 (parent)
# chain: GACCAAUCUGCCCUCAGAGCUCGAGAACAUCUUCGGAUGCAGAGGAGGCAGGCUUCGGUGGCGCGAUAGCGCCAACGUCCUCAACCUCCAAUGCAUCCCACCACAUGAUGAUGCCUGAAGAGCCUUGGUUUUUUG
# Variants of: B1
# Assay: polymerase ribozyme fitness, log enrichment relative to wild type (log ratio); higher = more active; in vitro selection for triplet polymerase activity
# Summary of the method: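 For each subunit of a heterodimeric triplet polymerase ribozyme, a mutant library was built by PCR and transcribed, then taken through a single in vitro selection round in triplicate. Selection involved annealing to a biotinylated primer, the partner subunit and triplets, incubation frozen at −7 °C, gel excision of extended constructs, capture on streptavidin beads and RT-PCR. Genotypes were retained after Illumina sequencing of inputs and outputs only with ≥10 input reads and ≥1 read in each output. Fitness is defined as the logarithm of a genotype's enrichment relative to wild-type enrichment, using inverse-variance-weighted averages across replicates, with the logarithm taken to base 2.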
row,Variant,polymerase ribozyme fitness (log ratio)
1,G60C U130G,-1.28
2,G60U A83U A108C C114G G117C,-5.39
3,G60U A84U C102A U134G,-2.03
4,G60U A90G C123A U125A G135A,1.61
5,G60U A90U,-1.1
6,G60U A91G,-1.56
7,G60U A91U A121U,0.38
8,G60U A105C,-1.6
9,G60U A119G,-0.151
10,G60U A121U,1.63
11,G60U C79U,0.386
12,G60U C80A U106A,-3.14
13,G60U C80G,-4.54
14,G60U C80U C123A,-1.11
15,G60U C82U,-0.383
16,G60U C85A,-0.541
17,G60U C86U A103U,-6.46
18,G60U C89A A118G,-1.39
19,G60U C97A,-5.24
20,G60U C97A C104U U126G,-5.83
21,G60U C97U,-1.7

row,Variant,polymerase ribozyme fitness (log ratio)
1,G60U C104U,0.494
2,G60U C104U U116A,-2.99
3,G60U C114U,-2.1
4,G60U C124G,1.38
5,G60U G61U C104A,-5.16
6,G60U G93A,-0.449
7,G60U G93A C98G,-6.44
8,G60U G93C,-0.936
9,G60U G93C C104A G113C,-4.47
10,G60U G117U,-1.65
11,G60U G120A,1.38
12,G60U G120U,0.205
13,G60U U78A U106A,0.283
14,G60U U87A C123G,1.56
15,G60U U87A U126C,-0.499
16,G60U U92A,-3.34
17,G60U U125G,-0.584
18,G60U U126C,-0.44
19,G60U U131C,-0.0582
20,G60U U132A,-0.036
21,G61A,0.0725

row,Variant,polymerase ribozyme fitness (log ratio)
1,G61A A66G C104A,-3.27
2,G61A A84C,0.126
3,G61A A84U C94A U131C,-0.628
4,G61A A84U C114U,-2.12
5,G61A A90G G128U,-1.55
6,G61A A91C,-0.737
7,G61A A100U,-0.262
8,G61A A111U,-2.88
9,G61A A118G,-0.742
10,G61A C62U,-1.86
11,G61A C62U C73A,-2.37
12,G61A C64A,-6.82
13,G61A C70U G120U C123G,-0.0638
14,G61A C72U G77U,-0.134
15,G61A C73A C123A,-0.908
16,G61A C73G,-1.15
17,G61A C79A C104A A111U,-5.96
18,G61A C82U C115A,0.0919
19,G61A C86G G93C,-2.03
20,G61A C86U,-0.712
21,G61A C88A C114G U116C G122A,-5.26

row,Variant,polymerase ribozyme fitness (log ratio)
1,G61A C88G,-0.136
2,G61A C89A,-1.25
3,G61A C89G C101G A121G,-0.932
4,G61A C94U U112A,1.31
5,G61A C97U,-0.149
6,G61A C97U C114U,-2.43
7,G61A C101U,-1.21
8,G61A C104U,0.241
9,G61A C123G,1.69
10,G61A G93A C114G,-2.13
11,G61A G107U,-4.9
12,G61A G110A,-0.516
13,G61A G110U U132A,-0.611
14,G61A G113A U130G,-1.32
15,G61A G113U,-2.69
16,G61A G117U,-2.02
17,G61A G127C,-0.956
18,G61A G128U,-2.15
19,G61A G135A,-1.88
20,G61A U78C,-0.183
